No end group written: not given here.
Biological target: calmodulin (Homo sapiens, UniProt P0DP23)
Assay: TMR fluorescence titration

Binder: ARRLKKGKKSKRSMNDPY (also: TMR label, site not given here) [TMR-labeled L-selectin cytoplasmic peptide cytoplasmic domain]
- Kd: ~1000 nM

Reference: paper PMC3858840 (2013)
